# B1: C-terminal transactivation domain of hypoxia inducible factor subunit 1α (CTAD-HIF-1α) (domain or fragment, UniProt Q16665 776-826, looked up)
# chain: SDLACRLLGQSMDESGLPQLTSYDCEVNAPIQGSRNLLQGEELLRALDQVN
# notes: Unlabelled or 2H, 13C, 15N-labelled, depending on the NMR sample
# Target: T1, transcriptional adapter zinc binding 1 (TAZ1) domain of CREB binding protein (CBP) (mouse (numbering; the same sequence in …, UniProt P45481 340-439)
# T1 construct: Isotope-labelled (15N; or 2H, 13C, 15N; or 10% 13C) or unlabelled, depending on the NMR sample
# Experiment: NMR relaxation (15N backbone and 2H methyl side chain) of the complex; 1.3 mM labelled TAZ1 with 1.8 mM unlabelled CTAD-HIF-1α, and 1.3 mM labelled CTAD-HIF-1α with 1.8 mM unlabelled TAZ1; 15 mM HEPES pH 6.8, 50 mM NaCl, 3 mM TCEP, 0.01% NaN3, 7% D2O; 303 K
# Conditions: both partners purified
# T1 sequence (P45481 340-439): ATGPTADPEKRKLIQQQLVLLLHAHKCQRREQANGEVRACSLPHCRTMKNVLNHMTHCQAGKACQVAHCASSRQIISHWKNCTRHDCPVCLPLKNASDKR
binder,measurement,value
B1,binding result,binds

# Source: article PMC6851107, “Characterization of the dynamics and the conformational entropy in the binding between TAZ1 and CTAD-HIF-1α” (Scientific Reports, 2019)
